Measurements as given in IntAct's records for PubMed 24744375.

B1: Disease resistance protein RRS1 (Arabidopsis thaliana (Mouse-ear cress)), P0DKH5 (parent)
chain: MTNCEKDEEFVCISCVEEVRYSFVSHLSEALRRKGINNVVVDVDIDDLLFKESQAKIEKAGVSVMVLPGNCDPSEVWLDKFAKVLECQRNNKDQAVVSVLYGDSLLRDQWLSELDFRGLSRIHQSRKECSDSILVEEIVRDVYETHFYVGRIGIYSKLLEIENMVNKQPIGIRCVGIWGMPGIGKTTLAKAVFDQMSSAFDASCFIEDYDKSIHEKGLYCLLEEQLLPGNDATIMKLSSLRDRLNSKRVLVVLDDVRNALVGESFLEGFDWLGPGSLIIITSRDKQVFCLCGINQIYEVQGLNEKEARQLFLLSASIKEDMGEQNLQELSVRVINYANGNPLAISVYGRELKGKKKLSEMETAFLKLKRRPPFKIVDAFKSTYDTLSDNEKNIFLDIACFFQGENVNYVIQLLEGCGFFPHVEIDVLVDKCLVTISENRVWLHKLTQDIGREIINGETVQIERRRRLWEPWSIKYLLEYNEHKANGEPKTTFKRAQGSEEIEGLFLDTSNLRFDLQPSAFKNMLNLRLLKIYCSNPEVHPVINFPTGSLHSLPNELRLLHWENYPLKSLPQNFDPRHLVEINMPYSQLQKLWGGTKNLEMLRTIRLCHSHHLVDIDDLLKAENLEVIDLQGCTRLQNFPAAGRLLRLRVVNLSGCIKIKSVLEIPPNIEKLHLQGTGILALPVSTVKPNHRELVNFLTEIPGLSEELERLTSLLESNSSCQDLGKLICLELKDCSCLQSLPNMANLDLNVLDLSGCSSLNSIQGFPRFLKQLYLGGTAIREVPQLPQSLEILNAHGSCLRSLPNMANLEFLKVLDLSGCSELETIQGFPRNLKELYFAGTTLREVPQLPLSLEVLNAHGSDSEKLPMHYKFNNFFDLSQQVVNDFLLKTLTYVKHIPRGYTQELINKAPTFSFSAPSHTNQNATFDLQSGSSVMTRLNHSWRNTLVGFGMLVEVAFPEDYCDATDVGISCVCRWSNKEGRSCRIERKFHCWAPWQVVPKVRKDHTFVFSDVNMRPSTGEGNDPDIWAGLVVFEFFPINQQTKCLNDRFTVRRCGVRVINVATGNTSLENIALVLSLDPVEVSGYEVLRVSYDDLQEMDKVLFLYIASLFNDEDVDFVAPLIAGIDLDVSSGLKVLADVSLISVSSNGEIVMHSLQRQMGKEILHGQSMLLSDCESSMTENLSDVPKKKKKHSESRVKKVVSIPAIDEGDLWTWRKYGQKDILGSRFPRGYYRCAYKFTHGCKATKQVQRSETDSNMLAITYLSEHNHPRPTKRKALADSTRSTSSSIC
partner: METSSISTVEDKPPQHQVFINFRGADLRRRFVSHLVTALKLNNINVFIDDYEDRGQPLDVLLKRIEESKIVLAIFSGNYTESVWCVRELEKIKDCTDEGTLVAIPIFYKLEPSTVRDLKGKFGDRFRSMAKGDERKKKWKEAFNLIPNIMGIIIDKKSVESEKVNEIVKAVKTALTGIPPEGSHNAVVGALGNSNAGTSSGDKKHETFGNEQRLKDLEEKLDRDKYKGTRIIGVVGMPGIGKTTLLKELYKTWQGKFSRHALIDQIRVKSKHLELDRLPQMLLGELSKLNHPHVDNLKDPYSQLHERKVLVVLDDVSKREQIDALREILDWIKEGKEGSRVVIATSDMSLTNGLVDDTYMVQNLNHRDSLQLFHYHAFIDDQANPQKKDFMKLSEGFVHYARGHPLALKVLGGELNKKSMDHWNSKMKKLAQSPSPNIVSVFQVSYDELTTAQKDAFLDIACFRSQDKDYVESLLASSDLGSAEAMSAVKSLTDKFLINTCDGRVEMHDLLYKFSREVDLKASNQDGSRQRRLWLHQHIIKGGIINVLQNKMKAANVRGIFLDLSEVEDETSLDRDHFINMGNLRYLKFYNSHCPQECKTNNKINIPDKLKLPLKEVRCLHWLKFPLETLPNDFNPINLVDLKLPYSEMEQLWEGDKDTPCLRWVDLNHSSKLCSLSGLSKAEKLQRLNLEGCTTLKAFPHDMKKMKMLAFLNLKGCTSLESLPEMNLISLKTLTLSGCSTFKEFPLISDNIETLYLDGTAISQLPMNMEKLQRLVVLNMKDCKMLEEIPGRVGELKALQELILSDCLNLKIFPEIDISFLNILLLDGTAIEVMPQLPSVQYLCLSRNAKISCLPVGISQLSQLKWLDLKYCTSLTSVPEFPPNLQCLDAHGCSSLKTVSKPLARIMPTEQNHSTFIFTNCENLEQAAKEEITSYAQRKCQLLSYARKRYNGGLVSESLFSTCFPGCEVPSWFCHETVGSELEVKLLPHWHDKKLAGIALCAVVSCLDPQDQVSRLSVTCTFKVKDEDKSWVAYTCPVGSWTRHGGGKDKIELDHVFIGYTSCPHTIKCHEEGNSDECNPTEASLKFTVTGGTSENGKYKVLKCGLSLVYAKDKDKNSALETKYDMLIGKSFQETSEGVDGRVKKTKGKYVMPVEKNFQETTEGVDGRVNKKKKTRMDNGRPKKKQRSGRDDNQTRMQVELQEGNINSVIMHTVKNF
B2: Disease resistance protein RPS4 (Arabidopsis thaliana (Mouse-ear cress)), Q9XGM3 (parent)
chain: B1 partner
partner: B1 chain

Variants of: B1
Details: with rps4_arath RPS4, Q9XGM3

effect of a mutation on the interaction | Variant
disrupting interaction strength | H26A

Variants of: B1
Details: with rps4_arath RPS4, Q9XGM3
Remark: another data set of the same source

effect of a mutation on the interaction | Variant
disrupting interaction strength | R20A
disrupting interaction strength | D131A
disrupting interaction strength | S25A;H26A
disrupting interaction strength | D103A
disrupting interaction strength | D103R
disrupting interaction strength | S25A
disrupting interaction strength | Y101A
disrupting interaction strength | E128A

Variants of: B2
Details: with wrk52_arath RRS1, P0DKH5

effect of a mutation on the interaction | Variant
disrupting interaction strength | K157A
disrupting interaction strength | S33A;H34A
disrupting interaction strength | R29A
disrupting interaction strength | R30E
disrupting interaction strength | R30A
disrupting interaction strength | S33A
disrupting interaction strength | E160A

Variants of: B2
Details: with wrk52_arath RRS1, P0DKH5
Remark: another data set of the same source

effect of a mutation on the interaction | Variant
disrupting interaction strength | H34A
